Results: PMC3795256, “Dynamic Regulation of Ero1α and Peroxiredoxin 4 Localization in the Secretory Pathway*^([image sbox.jpg])” (The Journal of Biological Chemistry, 2013)
One block for each binder: values may come before it.

B1: recombinant human Ero1α (WT) (natural protein, UniProt Q96HE7 24-468, looked up)
chain: EEQPPETAAQRCFCQVSGYLDDCTCDVETIDRFNNYRLFPRLQKLLESDYFRYYKVNLKRPCPFWNDISQCGRRDCAVKPCQSDEVPDGIKSASYKYSEEANNLIEECEQAERLGAVDESLSEETQKAVLQWTKHDDSSDNFCEADDIQSPEAEYVDLLLNPERYTGYKGPDAWKIWNVIYEENCFKPQTIKRPLNPLASGQGTSEENTFYSWLEGLCVEKRAFYRLISGLHASINVHLSARYLLQETWLEKKWGHNITEFQQRFDGILTEGEGPRRLKNLYFLYLIELRALSKVLPFFERPDFQLFTGNKIQDEENKMLLLEILHEIKSFPLHFDENSFFAGDKKEAHKLKEDFRLHFRNISRIMDCVGCFKCRLWGKLQTQGLGTALKILFSEKLIANMPESGPSYEFHLTRQEIVSLFNAFGRISTSVKELENFRNLLQNIH
notes: human Ero1α, wild type, recombinant; also called purified human Ero1α; source: recombinant, purified
B2: recombinant human ERp44 (natural protein, UniProt Q9BS26 30-406, looked up)
chain: EITSLDTENIDEILNNADVALVNFYADWCRFSQMLHPIFEEASDVIKEEFPNENQVVFARVDCDQHSDIAQRYRISKYPTLKLFRNGMMMKREYRGQRSVKALADYIRQQKSDPIQEIRDLAEITTLDRSKRNIIGYFEQKDSDNYRVFERVANILHDDCAFLSAFGDVSKPERYSGDNIIYKPPGHSAPDMVYLGAMTNFDVTYNWIQDKCVPLVREITFENGEELTEEGLPFLILFHMKEDTESLEIFQNEVARQLISEKGTINFLHADCDKFRHPLLHIQKTPADCPVIAIDSFRHMYVFGDFKDVLIPGKLKQFVFDLHSGKLHREFHHGPDPTDTAPGEQAQDVASSPPESSFQKLAPSEYRYTLLRDRDEL
notes: human ERp44, recombinant; a construct made in E. coli probably lacks the signal peptide; source: E. coli BL21 (DE3), purified (HisTrap, Superdex 200, Resource Q)

Legend:
Settings in all cases: both partners purified
recombinant human PDI = target: T1, recombinant human PDI (human, UniProt P07237 18-508); test: SPR; ProteOn XPR36; Ero1α (WT) or Prx4 amine-coupled to a GLC chip, PDI or ERp44 as analyte (0.444–36 μM); 25 °C; 20 mM HEPES-NaOH pH 7.4, 150 mM NaCl, 0.001% Tween, 2 mM EDTA; two-state model
T1 construct: human PDI, recombinant; also called protein disulfide isomerase; source: recombinant, purified
T1 sequence (P07237 18-508): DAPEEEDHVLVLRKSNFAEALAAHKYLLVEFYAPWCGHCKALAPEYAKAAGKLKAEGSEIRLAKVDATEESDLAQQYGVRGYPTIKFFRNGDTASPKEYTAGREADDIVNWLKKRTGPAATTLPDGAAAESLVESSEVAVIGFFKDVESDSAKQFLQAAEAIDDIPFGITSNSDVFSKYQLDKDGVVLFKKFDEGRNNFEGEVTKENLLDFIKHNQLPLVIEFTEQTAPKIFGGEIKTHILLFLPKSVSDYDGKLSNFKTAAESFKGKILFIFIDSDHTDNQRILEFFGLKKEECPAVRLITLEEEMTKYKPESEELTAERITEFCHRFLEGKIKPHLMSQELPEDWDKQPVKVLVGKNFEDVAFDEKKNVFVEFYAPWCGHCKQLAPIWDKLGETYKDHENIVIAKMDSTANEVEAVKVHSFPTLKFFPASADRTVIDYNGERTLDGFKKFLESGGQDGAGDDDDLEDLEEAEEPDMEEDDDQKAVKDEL

[1] = target: B1; test: SPR; ProteOn XPR36; Ero1α (WT) or Prx4 amine-coupled to a GLC chip, ERp44 as analyte (0.444–36 μM); 25 °C; 20 mM HEPES-NaOH pH 6.4, 150 mM NaCl, 0.001% Tween, 2 mM EDTA; two-state model
[2] = target: B1; test: SPR; ProteOn XPR36; Ero1α (WT) or Prx4 amine-coupled to a GLC chip, PDI or ERp44 as analyte (0.444–36 μM); 25 °C; 20 mM HEPES-NaOH pH 7.4, 150 mM NaCl, 0.001% Tween, 2 mM EDTA; two-state model
recombinant human ERp44 [3] = target: B2; test: SPR; ProteOn XPR36; Ero1α (WT) or Prx4 amine-coupled to a GLC chip, ERp44 as analyte (0.444–36 μM); 25 °C; 20 mM HEPES-NaOH pH 6.4, 150 mM NaCl, 0.001% Tween, 2 mM EDTA; two-state model
recombinant human ERp44 [4] = target: B2; test: SPR; ProteOn XPR36; Ero1α (WT) or Prx4 amine-coupled to a GLC chip, PDI or ERp44 as analyte (0.444–36 μM); 25 °C; 20 mM HEPES-NaOH pH 7.4, 150 mM NaCl, 0.001% Tween, 2 mM EDTA; two-state model

Binder: B1
Kd (recombinant human PDI): 1.94 µM

Binder: B2
Kd [1]: 5.15 µM | Kd [2]: 10.4 µM

Kd (recombinant human ERp44 [3]): 6.92 µM | Kd (recombinant human ERp44 [4]): 17.9 µM
B3: recombinant human Prx4 (natural protein, UniProt Q13162 38-271, looked up)
chain: WETEERPRTREEECHFYAGGQVYPGEASRVSVADHSLHLSKAKISKPAPYWEGTAVIDGEFKELKLTDYRGKYLVFFFYPLDFTFVCPTEIIAFGDRLEEFRSINTEVVACSVDSQFTHLAWINTPRRQGGLGPIRIPLLSDLTHQISKDYGVYLEDSGHTLRGLFIIDDKGILRQITLNDLPVGRSVDETLRLVQAFQYTDKHGEVCPAGWKPGSETIIPDPAGKLKYFDKLN
notes: human Prx4, recombinant; a construct made in E. coli probably lacks the signal peptide; also called purified human Prx4; peroxiredoxin 4; source: E. coli BL21 (DE3), purified (HisTrap, Superdex 200, Resource Q)
